This data set relates to NCCCC[C@H](N)C(=O)O. Description: purified protein.

In general, Km refers to the concentration of substrate that gives half-maximal velocity.

For “lysyl-tRNA synthetase 1 (LdLysRS-1) (Leishmania donovani)”, the Km worked out at 111 ± 15 µM.

The values above are taken from publication PMC5577655.
